This experiment deals with IgG. The experiment can be described thus: not stated; equilibrium affinity of recombinant CHO FcγRIIIa for IgG, before and after enzymatic desialylation; method and conditions only in the supplement (Fig. S16).

On to “enzymatically desialylated recombinant FcγRIIIa expressed in CHO cells (from UniProt P08637 17-254) (receptor)”, for which the fold increase in equilibrium affinity against the untreated FcγRIIIa worked out at 2 fold.

Values taken from publication PMC6398215.
